{
  "source": "patent CN115558029A",
  "binders": {"B1": {"name": "PD-1VHH抗体克隆huVHH3-3 (VHH, part only; not given: format as tested, part only)", "VHH, part": "EVQLVESGGGLVQPGGSLRLSCAASGRTSSMYAMGWFRQAPGNEREFVAGIGWENNTPYYARSVEGRFTISRDNVKNTVFLQMNRLRAEDTAVYYCAAQIGISGTLGDYWGQGTQVTVSS"}},
  "key": {"[1]": {"molecular_target": "PD-1 on Jurkat/PD-1细胞(Promega) (UniProt Q15116)", "test": "cell-based or functional assay"}, "[2]": {"molecular_target": "人PD-1蛋白(北京百普赛斯，货号PD1-H5221) (human) (UniProt Q15116)", "test": "binding ELISA, human PD-1 protein coated at 1 μg/mL, anti-human IgG (Fc)-HRP"}, "[3]": {"molecular_target": "人PD-1蛋白(北京百普赛斯，货号PD1-H5221) (human) (UniProt Q15116)", "test": "binding ELISA on coated PD-1 protein"}, "[4]": {"molecular_target": "人PD-1蛋白(北京百普赛斯，货号PD1-H5221) (human) (UniProt Q15116)", "test": "binding ELISA on coated PD-1 protein", "remark": "listed apart in the source"}, "[5]": {"molecular_target": "PD-1 on Jurkat/PD-1细胞(Promega) (UniProt Q15116)", "test": "cell-based or functional assay", "remark": "listed apart in the source"}, "[6]": {"molecular_target": "人PD-1蛋白(北京百普赛斯，货号PD1-H5221) (human) (UniProt Q15116)", "test": "binding ELISA on coated PD-1 protein", "remark": "listed apart in the source"}, "[7]": {"molecular_target": "人PD-1蛋白(北京百普赛斯，货号PD1-H5221) (human) (UniProt Q15116)", "test": "binding ELISA on coated PD-1 protein", "remark": "listed apart in the source"}, "[8]": {"molecular_target": "PD-1 on Jurkat/PD-1细胞(Promega) (UniProt Q15116)", "test": "cell-based or functional assay", "remark": "listed apart in the source"}},
  "note": "Read-outs that look alike come from different tables or passages of the source.",
  "data": [
    {"binder": "B1", "values": [
      {"measurement": "EC50, PD-1报告基因法", "setting": "[1]", "result": 0.2, "unit": "µg/mL"},
      {"measurement": "EC50, 报告基因法 (CHO/PD-L1 + Jurkat/PD-1, One-Glo luminescence)", "setting": "[1]", "result": "0.2 to 0.5", "unit": "µg/mL"},
      {"measurement": "EC50", "setting": "[2]", "result": 0.0202, "unit": "µg/mL"},
      {"measurement": "EC50", "setting": "[3]", "result": 0.0053, "unit": "µg/mL"},
      {"measurement": "EC50", "setting": "[4]", "result": 0.0122, "unit": "µg/mL"},
      {"measurement": "EC50, PD-1报告基因法", "setting": "[5]", "result": 0.5, "unit": "µg/mL"},
      {"measurement": "EC50", "setting": "[6]", "result": 0.0073, "unit": "µg/mL"},
      {"measurement": "EC50", "setting": "[7]", "result": 0.0164, "unit": "µg/mL"},
      {"measurement": "EC50, PD-1报告基因法", "setting": "[8]", "result": 0.4, "unit": "µg/mL"}
    ]}
  ]
}
